Series [1] concerns the target T1, Aβ-42 (amyloid beta 1-42) (UniProt P05067 672-713). As to the kind of experiment: G-FET (VDirac shift, Hill fit); pseudo KD; 12.5 mM Mg2+; PBS; 1x PBS with 12.5 mM Mg2+, pH 7.0-7.4, room temperature; or full serum; probe immobilized on graphene FET. The note with it: protein: commercial; DNA tetrahedron of 4 strands, six 17 bp edges, pendant aptamer with 5T spacer.

In series [2] the target is T1, Aβ-42 (amyloid beta 1-42). As to the kind of experiment: G-FET (VDirac shift, Ids-t); full serum; 1x PBS with 12.5 mM Mg2+, pH 7.0-7.4, room temperature; or full serum; probe immobilized on graphene FET. To be noted: protein: commercial; DNA tetrahedron of 4 strands, six 17 bp edges, pendant aptamer with 5T spacer.
Series [3] addresses T1, Aβ-42 (amyloid beta 1-42). As to the kind of experiment: G-FET (VDirac shift, Hill fit); five orders of magnitude weaker than TDN; 12.5 mM Mg2+; SI captions say insulin; 1x PBS with 12.5 mM Mg2+, pH 7.0-7.4, room temperature; or full serum; probe immobilized on graphene FET. To be noted: protein: commercial.

T1 sequence (P05067 672-713): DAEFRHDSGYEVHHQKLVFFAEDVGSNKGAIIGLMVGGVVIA

B1: 17bp-5T TDN (tetrahedral DNA nanostructure with Aβ-42 aptamer) (structured_DNA)
DNA 1: AGTCTAGGATTCGGCGTGGGTTAATTTTTTGCTGCCTGTGGTGTTGGGGCGGGTGCGTTTTTACATTCCTAAGTCTGAAACATTACAGCTTGCTACACGAGAAGAGCCGCCATAGTA
DNA 2: TATCACCAGGCAGTTGACAGTGTAGCAAGCTGTAATAGATGCGAGGGTCCAATAC
DNA 3: TCAACTGCCTGGTGATAAAACGACACTACGTGGGAATCTACTATGGCGGCTCTTC
DNA 4: TTCAGACTTAGGAATGTGCTTCCCACGTAGTGTCGTTTGTATTGGACCCTCGCAT
modifications: 5' NH2-C6 on strands B17, C17, D17
With B1, the binding result in series [1] and in series [2] was “binds” each time.

B2: ss-DNA aptamer (Aβ-42 aptamer) (ssDNA)
DNA: AGTCTAGGATTCGGCGTGGGTTAATTTTTTGCTGCCTGTGGTGTTGGGGCGGGTGCG
modifications: 5' NH2-C6
In the case of B2, the binding signal in series [3] is ~100000 fold higher pseudo KD than TDN.

Source of the values: PMC12158189, “Rigid DNA Frameworks Anchored Transistor Enabled Ultrasensitive Detection of Aβ-42 in Serum”.
